# Experimental data as given in patent publication CN110840830A (BEIJING DONGFANG BIOTECH CO LTD, dated 2020).
# T1: 细胞表面CTLA-4抗原 (CTLA-4 on cells) (UniProt P16410 36-223, limits assumed)
# T1 construct: whole, on cells; Also used as the target of the mixed lymphocyte reaction rows, where CTLA-4 stands on primary CD4+ T cells; also called 细胞表达的CTLA-4抗原; 过表达CTLA-4抗原的CHO细胞
# T1 sequence (looked up): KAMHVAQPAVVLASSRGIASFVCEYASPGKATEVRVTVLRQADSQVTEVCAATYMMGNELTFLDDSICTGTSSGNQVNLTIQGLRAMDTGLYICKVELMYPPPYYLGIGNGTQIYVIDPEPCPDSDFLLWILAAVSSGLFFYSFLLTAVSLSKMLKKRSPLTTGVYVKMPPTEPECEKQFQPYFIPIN
# T2: CTLA-4 (antigen coated on ELISA plates and immunotubes) (UniProt P16410 36-161, limits assumed)
# T2 construct: also called CTLA-4抗原; 细胞毒性T淋巴细胞相关抗原4
# T2 sequence (looked up): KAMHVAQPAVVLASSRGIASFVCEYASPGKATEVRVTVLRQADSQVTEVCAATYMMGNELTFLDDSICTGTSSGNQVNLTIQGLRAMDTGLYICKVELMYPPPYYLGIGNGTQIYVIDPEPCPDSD
# Experiments:
# [1] = target: T1, 细胞表面CTLA-4抗原 (CTLA-4 on cells); test: flow cytometry on CHO cells over-expressing CTLA-4, Alexa488 anti-human IgG Fc
# [2] = target: T1, 细胞表面CTLA-4抗原 (CTLA-4 on cells); test: cell-based or functional assay
# [3] = target: T2, CTLA-4 (antigen coated on ELISA plates …); test: ELISA, full antibody on coated CTLA-4, anti-human IgG-HRP
EC50 [1],"混合淋巴细胞反应(MLR), CD4+ T细胞增殖 (cck8), EC50 [2]",EC50 [3],Binder
8.95 ng/mL,8.31 nM,0.11 µg/mL,"全抗N-2 (antibody, human IgG1, kappa, V domains shown, also called 抗CTLA-4全抗体N-2) VH: QVQLVESGGGVVQPGRSLRLSCAASGFTFSSIFKRWVRQAPGKGLEWVTFISYDGLDHINGDSVKGRFTISRDNSKNTLYLQMNSLRAEDTAIYYCARRYRWWGKAMDYWGQGTLVTVSS VL: DIVMTQSPLSLPVTPGEPASISCKSSQSVIDSKGYTYLGWYLQKPGQSPQLLIYLGTQKSSGVPDRFSGSGSGTDFTLKISRVEAEDVGVYYCLQRGHIPITFGQGTKLEIKR"
6.49 ng/mL,7.32 nM,0.164 µg/mL,"全抗N-8 (antibody, human IgG1, kappa, V domains shown, also called 抗CTLA-4全抗体N-8) VH: QVQLVESGGGVVQPGRSLRLSCAASGFTFSGFSICWVRQAPGKGLEWVTFISYDGLLFLIADSVKGRFTISRDNSKNTLYLQMNSLRAEDTAIYYCARRYRWWGKAMDYWGQGTLVTVSS VL: DIVMTQSPLSLPVTPGEPASISCRSSQTVFDSHGQTYLQWYLQKPGQSPQLLIYGASRQVSGVPDRFSGSGSGTDFTLKISRVEAEDVGVYYCMQVWHLPITFGQGTKLEIKR"
7.05 ng/mL,6.67 nM,0.127 µg/mL,"全抗N-6 (antibody, human IgG1, kappa, V domains shown, also called 抗CTLA-4全抗体N-6) VH: QVQLVESGGGVVQPGRSLRLSCAASGFTFSSNTLRWVRQAPGKGLEWVTFISYDSLFLDQGDSVKGRFTISRDNSKNTLYLQMNSLRAEDTAIYYCARRYRWWGKAMDYWGQGTLVTVSS VL: DIVMTQSPLSLPVTPGEPASISCRSSQTVFDSHGQTYLQWYLQKPGQSPQLLIYGASRQVSGVPDRFSGSGSGTDFTLKISRVEAEDVGVYYCMQVWHLPITFGQGTKLEIKR"
7.92 ng/mL,6.31 nM,0.0865 µg/mL,"全抗N-7 (antibody, human IgG1, kappa, V domains shown, also called 抗CTLA-4全抗体N-7) VH: QVQLVESGGGVVQPGRSLRLSCAASGFTFSGIYCNWVRQAPGKGLEWVTFISYDSILNVIADSVKGRFTISRDNSKNTLYLQMNSLRAEDTAIYYCARRYRWWGKAMDYWGQGTLVTVSS VL: DIVMTQSPLSLPVTPGEPASISCRSSQTVFDSHGQTYLQWYLQKPGQSPQLLIYGASRQVSGVPDRFSGSGSGTDFTLKISRVEAEDVGVYYCMQVWHLPITFGQGTKLEIKR"
11.1 ng/mL,15.4 nM,0.0922 µg/mL,"全抗N-4 (antibody, human IgG1, kappa, V domains shown, also called 抗CTLA-4全抗体N-4) VH: QVQLVESGGGVVQPGRSLRLSCAASGFTFSAFYNPWVRQAPGKGLEWVTFISYDGVYFHFGDSVKGRFTISRDNSKNTLYLQMNSLRAEDTAIYYCARRYRWWGKAMDYWGQGTLVTVSS VL: DIVMTQSPLSLPVTPGEPASISCKSSQSVIDSKGYTYLGWYLQKPGQSPQLLIYLGTQKSSGVPDRFSGSGSGTDFTLKISRVEAEDVGVYYCLQRGHIPITFGQGTKLEIKR"
7.09 ng/mL,7.34 nM,0.163 µg/mL,"全抗N-1 (antibody, human IgG1, kappa, V domains shown, also called 抗CTLA-4全抗体N-1) VH: QVQLVESGGGVVQPGRSLRLSCAASGFTFSGYNGNWVRQAPGKGLEWVTFISYDGLNDVKADSVKGRFTISRDNSKNTLYLQMNSLRAEDTAIYYCARRYRWWGKAMDYWGQGTLVTVSS VL: DIVMTQSPLSLPVTPGEPASISCKSSQSVIDSKGYTYLGWYLQKPGQSPQLLIYLGTQKSSGVPDRFSGSGSGTDFTLKISRVEAEDVGVYYCLQRGHIPITFGQGTKLEIKR"
6.12 ng/mL,4.95 nM,0.0689 µg/mL,"全抗N-5 (antibody, human IgG1, kappa, V domains shown, also called 抗CTLA-4全抗体N-5; N-5的全抗体) VH: QVQLVESGGGVVQPGRSLRLSCAASGFTFSGFFNRWVRQAPGKGLEWVTFISYDALKDFYADSVKGRFTISRDNSKNTLYLQMNSLRAEDTAIYYCARRYRWWGKAMDYWGPGTLVTVSS VL: DIVMTQSPLSLPVTPGEPASISCRSSQTVFDSHGQTYLQWYLQKPGQSPQLLIYGASRQVSGVPDRFSGSGSGTDFTLKISRVEAEDVGVYYCMQVWHLPITFGQGTKLEIKR"
8.96 ng/mL,14.2 nM,0.264 µg/mL,"全抗N-3 (antibody, human IgG1, kappa, V domains shown, also called 抗CTLA-4全抗体N-3) VH: QVQLVESGGGVVQPGRSLRLSCAASGFTFSGIFSSWVRQAPGKGLEWVTFISYDSLKQKDGDSVKGRFTISRDNSKNTLYLQMNSLRAEDTAIYYCARRYRWWGKAMDYWGQGTLVTVSS VL: DIVMTQSPLSLPVTPGEPASISCKSSQSVIDSKGYTYLGWYLQKPGQSPQLLIYLGTQKSSGVPDRFSGSGSGTDFTLKISRVEAEDVGVYYCLQRGHIPITFGQGTKLEIKR"
